The source of these data is publication PMC4661536, “Structural delineation of stem-loop RNA binding by human TAF15 protein”.

Holding throughout (details): protein: recombinant; hairpin, 8 bp stem, 9 nt loop
The target in series [1] is T1, FUS-RRM (Homo sapiens, UniProt P35637 282-374). The series is described as follows: ITC; average over three sequential sites; ITC: 10 mM HEPES pH 7.0, 20 mM Na2SO4 (+5 mM beta-mercaptoethanol for RRM-RanBP2 constructs), 298 K, 1 mM RNA into 100 uM protein. NMR: 20 mM Na phosphate pH 6.2, 25 mM NaCl, 5% D2O (RRM) or 25 mM Na2SO4, 5 mM beta-mercaptoethanol (TAF15-RRM-RanBP2), 298 K.

Another series addresses TAF15-RRM (Homo sapiens, UniProt Q92804 231-323). Briefly: ITC; N = 0.72; ITC: 10 mM HEPES pH 7.0, 20 mM Na2SO4 (+5 mM beta-mercaptoethanol for RRM-RanBP2 constructs), 298 K, 1 mM RNA into 100 uM protein. NMR: 20 mM Na phosphate pH 6.2, 25 mM NaCl, 5% D2O (RRM) or 25 mM Na2SO4, 5 mM beta-mercaptoethanol (TAF15-RRM-RanBP2), 298 K. For orientation: In ITC the heat of successive injections is recorded.

The target of another series is TAF15-RRM-RanBP2 (Homo sapiens, UniProt Q92804 231-388). Briefly: ITC; N = 0.8; 5 mM beta-mercaptoethanol; ITC: 10 mM HEPES pH 7.0, 20 mM Na2SO4 (+5 mM beta-mercaptoethanol for RRM-RanBP2 constructs), 298 K, 1 mM RNA into 100 uM protein. NMR: 20 mM Na phosphate pH 6.2, 25 mM NaCl, 5% D2O (RRM) or 25 mM Na2SO4, 5 mM beta-mercaptoethanol (TAF15-RRM-RanBP2), 298 K.
Series [2] has as its target T1, FUS-RRM. Briefly: ITC; sequential site N2; ITC: 10 mM HEPES pH 7.0, 20 mM Na2SO4 (+5 mM beta-mercaptoethanol for RRM-RanBP2 constructs), 298 K, 1 mM RNA into 100 uM protein. NMR: 20 mM Na phosphate pH 6.2, 25 mM NaCl, 5% D2O (RRM) or 25 mM Na2SO4, 5 mM beta-mercaptoethanol (TAF15-RRM-RanBP2), 298 K.
For series [3], the target named is T1, FUS-RRM. Briefly: ITC; sequential site N3; ITC: 10 mM HEPES pH 7.0, 20 mM Na2SO4 (+5 mM beta-mercaptoethanol for RRM-RanBP2 constructs), 298 K, 1 mM RNA into 100 uM protein. NMR: 20 mM Na phosphate pH 6.2, 25 mM NaCl, 5% D2O (RRM) or 25 mM Na2SO4, 5 mM beta-mercaptoethanol (TAF15-RRM-RanBP2), 298 K.
In series [4] the target is T1, FUS-RRM. Briefly: ITC; sequential site N1; ITC: 10 mM HEPES pH 7.0, 20 mM Na2SO4 (+5 mM beta-mercaptoethanol for RRM-RanBP2 constructs), 298 K, 1 mM RNA into 100 uM protein. NMR: 20 mM Na phosphate pH 6.2, 25 mM NaCl, 5% D2O (RRM) or 25 mM Na2SO4, 5 mM beta-mercaptoethanol (TAF15-RRM-RanBP2), 298 K.
The target in another series is FUS-RRM-RanBP2 (Homo sapiens, UniProt P35637 282-454). Briefly: ITC; N = 0.7; 5 mM beta-mercaptoethanol; ITC: 10 mM HEPES pH 7.0, 20 mM Na2SO4 (+5 mM beta-mercaptoethanol for RRM-RanBP2 constructs), 298 K, 1 mM RNA into 100 uM protein. NMR: 20 mM Na phosphate pH 6.2, 25 mM NaCl, 5% D2O (RRM) or 25 mM Na2SO4, 5 mM beta-mercaptoethanol (TAF15-RRM-RanBP2), 298 K.
Sequence of FUS-RRM-RanBP2 (P35637 282-454): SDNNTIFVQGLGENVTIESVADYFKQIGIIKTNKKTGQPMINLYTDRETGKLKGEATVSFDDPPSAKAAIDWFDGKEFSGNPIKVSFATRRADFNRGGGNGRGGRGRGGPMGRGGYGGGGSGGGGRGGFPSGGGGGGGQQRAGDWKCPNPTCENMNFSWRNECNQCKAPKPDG

T1 sequence (P35637 282-374): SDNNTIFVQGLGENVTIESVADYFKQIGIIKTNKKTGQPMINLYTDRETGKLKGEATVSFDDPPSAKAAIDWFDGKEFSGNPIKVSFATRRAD
Sequence of TAF15-RRM (Q92804 231-323): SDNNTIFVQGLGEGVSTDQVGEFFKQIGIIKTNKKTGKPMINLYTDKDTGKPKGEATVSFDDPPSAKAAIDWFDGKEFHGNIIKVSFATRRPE
Sequence of TAF15-RRM-RanBP2 (Q92804 231-388): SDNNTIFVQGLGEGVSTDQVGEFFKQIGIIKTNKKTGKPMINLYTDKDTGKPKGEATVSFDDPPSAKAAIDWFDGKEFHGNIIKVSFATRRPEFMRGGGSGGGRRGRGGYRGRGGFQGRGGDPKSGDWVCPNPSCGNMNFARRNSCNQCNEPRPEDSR

For orientation: Kd means the equilibrium constant for the complex coming apart. Take CGUAUCUUUAACUACUCAAGAUACG (structured_RNA) [SON stem-loop RNA]: the Kd with FUS-RRM [1] was determined as 11 µM; with TAF15-RRM, 10 ± 1 µM; with TAF15-RRM-RanBP2, 6 ± 0.7 µM; in the series with FUS-RRM [2] it was 13 ± 1.6 µM; with FUS-RRM [3], 12 ± 0.3 µM; with FUS-RRM [4], 10 ± 1 µM. Moreover, the Kd with FUS-RRM-RanBP2 was found to be 8 ± 0.7 µM.
